# Publication doi:10.1101/2020.04.07.029900, “Pat1 increases the range of decay factors and RNA bound by the Lsm1-7 complex” (bioRxiv, 2020)
# Legend:
# Lsm1-7 complex = molecular target: T1, Lsm1-7 complex (S. pombe, UniProt P87173 1-140; O94408 1-96; Q9Y7M4 1-93; O14352 1-121; O42978 1-80; Q9UUI1 1-75; …); test: SEC; PatMC co-expressed with His6-Lsm1-7 in E. coli, co-purified on Ni-NTA and heparin, TEV, then preparative Superdex 200 16/60 in 400 mM NaCl, 20 mM HEPES 7.0, 1 mM DTT; SDS-PAGE of the complex; settings: both partners purified
# T1 construct: Lsm1, S. pombe; from a polycistron of all seven Lsm proteins; Lsm2, S. pombe; Lsm3, S. pombe; Lsm4, S. pombe; Lsm5, S. pombe; Lsm6, S. pombe; Lsm7, S. pombe; Expected mass of the monomeric complex 81 kDa; In the droplet experiment 0.1 uM of it carried Alexa Fluor 555 maleimide; In the co-purification with PatMC the His6 tag on Lsm1 was present on Ni-NTA and cut by TEV before gel filtration; also …
# T1 sequence (Q9Y7M4 whole entry, chain 3 of 2): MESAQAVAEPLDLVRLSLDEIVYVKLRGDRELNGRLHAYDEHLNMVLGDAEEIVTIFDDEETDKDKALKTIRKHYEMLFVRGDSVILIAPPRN
# T1 sequence (O42978 whole entry, chain 5 of 2): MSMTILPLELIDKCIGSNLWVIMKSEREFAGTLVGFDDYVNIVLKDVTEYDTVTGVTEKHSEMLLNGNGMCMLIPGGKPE
# [1] = molecular target: the molecule itself; test: AUC; sedimentation velocity, 9.3 uM PatMC/Lsm1-7 without RNA, 250 mM NaCl, 20 mM HEPES pH 7.0, 1 mM DTT, 30,000 rpm, 10-12 hours
# [2] = molecular target: the molecule itself; test: AUC; sedimentation velocity, 9.3 uM PatMC/Lsm1-7 with stoichiometric A15 RNA, 250 mM NaCl, 20 mM HEPES pH 7.0, 1 mM DTT, 30,000 rpm, 10-12 hours
binding result (Lsm1-7 complex),Binder,stoichiometry N [1],stoichiometry N [2]
binds,"PatMC (middle and C-terminal domains of Pat1, residues 296-754) (domain or fragment, S. pombe, UniProt O42958 296-754, looked up, Pat1, S. pombe, middle and C-terminal domains (PatMC), residues 296-754; codon optimized gene in site two of pET-Duet; No tag is told for PatMC in the co-expression construct; source: E. coli BL21(DE3)*, co-expressed with Lsm1-7 from pET-Duet, co-purified (Ni-NTA, heparin, Superdex 200)) LDEKRQKLERDHMLMAQCAGLMTRSDKSFIARIQISQLMSEDPESDDFYYRVYSIIRGRKPSEEEASHFIQTYLGPSNNRRRGRRSENPMQKLQQQLQRLVSSAKERPKATQLSLEGALGKIAVNTVRTPRQLLNVKRPTEPASSNSSLNNFSGFSTKKDVLHAIEKVYDLLLDFEQALRKASTLETTDQEQIDTWKTTLSEKLESIWKALYINESLEASSKTRPPFISIISHPKGMRLLPRLFPHLSKEQQISILKVVVYNFDSLDIVLRGTFDVNGELPLDVVSEMSSFTQFIIPPLLTIVNELDLETINNLFSQLLNRTNAVYLIQTKIGLSFLTLFISRAEILKQSGTVNQNEKEEWENTFNVMFNRVKGHFSTVFPPPNARAYADESYPWEFLAACATAASSEQHFTLVSETRDRVLDNIITSKRAPSEIAVVRISNVNLFLNAMGLDARQLSA",–,–
–,"PatMC/Lsm1-7 complex (complex, Pat1, S. pombe, middle and C-terminal domains (PatMC), residues 296-754; codon optimized gene in site two of pET-Duet; Lsm1, S. pombe; from a polycistron of all seven Lsm proteins; Lsm2, S. pombe; Lsm3, S. pombe; Lsm4, S. pombe; Lsm5, S. pombe; Lsm6, S. pombe; Lsm7, S. pombe; Heterooctamer, expected mass of the monomeric complex 133 kDa; TEV was added before gel filtration to remove the His6 tag …) chain 1: LDEKRQKLERDHMLMAQCAGLMTRSDKSFIARIQISQLMSEDPESDDFYYRVYSIIRGRKPSEEEASHFIQTYLGPSNNRRRGRRSENPMQKLQQQLQRLVSSAKERPKATQLSLEGALGKIAVNTVRTPRQLLNVKRPTEPASSNSSLNNFSGFSTKKDVLHAIEKVYDLLLDFEQALRKASTLETTDQEQIDTWKTTLSEKLESIWKALYINESLEASSKTRPPFISIISHPKGMRLLPRLFPHLSKEQQISILKVVVYNFDSLDIVLRGTFDVNGELPLDVVSEMSSFTQFIIPPLLTIVNELDLETINNLFSQLLNRTNAVYLIQTKIGLSFLTLFISRAEILKQSGTVNQNEKEEWENTFNVMFNRVKGHFSTVFPPPNARAYADESYPWEFLAACATAASSEQHFTLVSETRDRVLDNIITSKRAPSEIAVVRISNVNLFLNAMGLDARQLSA chain 2: MNQATQIIPFTTSGSLVDYVDRKVIVVLRDGKKLIGILRSFDQFANLMLQYTIERIYVDDMYGDIDRGVYIVRGENVVLLGELDLDKEYDAVKQLRRMPAEELYPLAKLHEEEKKKNIREKGKYLHSVGFSVDGGHDDLY chain 3: MLFYSFFKTLIDTEVTVELKNDMSIRGILKSVDQFLNVKLENISVVDASKYPHMAAVKDLFIRGSVVRYVHMSSAYVDTILLADACRRDLANNKRQ chain 4: not shown chain 5: MLPLTLLNATQGRPILVELKNGETFNGHLENCDNYMNLTLREVIRTMPDGDKFFRLPECYIRGNNIKYLRIQDEVLSQVAKQQAQQRENRGSRFRGRGQRGRGNYGHTAPNRRGRGRGGHM chain 6: not shown chain 7: MDSSPNEFLNKVIGKKVLIRLSSGVDYKGILSCLDGYMNLALERTEEYVNGKKTNVYGDAFIRGNNVLYVSALDD chain 8: MSSLQKRPGPGNSSQPTERPRKESILDLSRYQDQRIQATFTGGRQITGILKGFDQLMNLVLDDVEEQLRNPEDGKLTGAIRKLGLVVVRGTTLVLIAPMDGSEEIPNPFVQAE",2,4
